# Data: paper PMC11574045, “A cofactor-induced repressive type of transcription factor condensation can be induced by synthetic peptides to suppress tumorigenesis” (The EMBO Journal, 2024)
# Test system: HEK293FT cells transfected with TF library
# Experiment: Screening of TF condensates based on fluorescent puncta
# Format: cell-based
# Conditions: Figure 1B numerical data; TF library screen, one value per transcriptional factor
# Summary of the method: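 TF plasmids (final 1.6 μg/ml) reverse-transfected with PEI (4.8 μg/ml) into HEK293FT cells; after 60 h, cells cultured ±glucose for 12 h, fixed in 4% PFA and immunostained for Flag or GAL4 tags with Alexa 488 secondaries. Puncta scored by automated imaging of 50 random fields per well.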
row,Molecule,Z score of condensed fraction
1,"RFX4 (protein, UniProt Q33E94 1-735, looked up) Transcription factor RFX4: MHCGLLEEPDMDSTESWIERCLNESENKRYSSHTSLGNVSNDENEEKENNRASKPHSTPATLQWLEENYEIAEGVCIPRSALYMHYLDFCEKNDTQPVNAASFGKIIRQQFPQLTTRRLGTRGQSKYHYYGIAVKESSQYYDVMYSKKGAAWVSETGKKEVSKQTVAYSPRSKLGTLLPEFPNVKDLNLPASLPEEKVSTFIMMYRTHCQRILDTVIRANFDEVQSFLLHFWQGMPPHMLPVLGSSTVVNIVGVCDSILYKAISGVLMPTVLQALPDSLTQVIRKFAKQLDEWLKVALHDLPENLRNIKFELSRRFSQILRRQTSLNHLCQASRTVIHSADITFQMLEDWRNVDLNSITKQTLYTMEDSRDEHRKLITQLYQEFDHLLEEQSPIESYIEWLDTMVDRCVVKVAAKRQGSLKKVAQQFLLMWSCFGTRVIRDMTLHSAPSFGSFHLIHLMFDDYVLYLLESLHCQERANELMRAMKGEGSTAEVREEIILTEAAAPTPSPVPSFSPAKSATSVEVPPPSSPVSNPSPEYTGLSTTGAMQSYTWSLTYTVTTAAGSPAENSQQLPCMRNTHVPSSSVTHRIPVYPHREEHGYTGSYNYGSYGNQHPHPMQSQYPALPHDTAISGPLHYAPYHRSSAQYPFNSPTSRMEPCLMSSTPRLHPTPVTPRWPEVPSANTCYTSPSVHSARYGNSSDMYTPLTTRRNSEYEHMQHFPGFAYINGEASTGWAK",-0.3239
2,"R-LIM (protein, UniProt Q9NVW2 1-624, looked up) E3 ubiquitin-protein ligase …: MENSDSNDKGSGDQSAAQRRSQMDRLDREEAFYQFVNNLSEEDYRLMRDNNLLGTPGESTEEELLRRLQQIKEGPPPQNSDENRGGDSSDDVSNGDSIIDWLNSVRQTGNTTRSGQRGNQSWRAVSRTNPNSGDFRFSLEINVNRNNGSQNSENENEPSARRSSGENVENNSQRQVENPRSESTSARPSRSERNSTEALTEVPPTRGQRRARSRSPDHRRTRARAERSRSPLHPMSEIPRRSHHSISSQTFEHPLVNETEGSSRTRHHVTLRQQISGPELLSRGLFAASGTRNASQGAGSSDTAASGESTGSGQRPPTIVLDLQVRRVRPGEYRQRDSIASRTRSRSQTPNNTVTYESERGGFRRTFSRSERAGVRTYVSTIRIPIRRILNTGLSETTSVAIQTMLRQIMTGFGELSYFMYSDSDSEPTGSVSNRNMERAESRSGRGGSGGGSSSGSSSSSSSSSSSSSSSSSSSSPSSSSGGESSETSSDLFEGSNEGSSSSGSSGARREGRHRAPVTFDESGSLPFLSLAQFFLLNEDDDDQPRGLTKEQIDNLAMRSFGENDALKTCSVCITEYTEGNKLRKLPCSHEYHVHCIDRWLSENSTCPICRRAVLASGNRESVV",-0.6236
3,"RFXDC1 (protein, UniProt Q8HWS3 1-928, looked up) DNA-binding protein RFX6: MAKVPELEDTFLQAQPAPQLSPGIQEDCCVQLLGKGLLVYPEETVYLAAEGQPGGEQGGGEKGEDPELPGAVKSEMHLNNGNFSSEEEDADNHDSKTKAADQYLSQKKTITQIVKDKKKQTQLTLQWLEENYIVCEGVCLPRCILYAHYLDFCRKEKLEPACAATFGKTIRQKFPLLTTRRLGTRGHSKYHYYGIGIKESSAYYHSVYSGKGLTRFSGSKLKNEGGFTRKYSLSSKTGTLLPEFPSAQHLVYQGCISKDKVDTLIMMYKTHCQCILDNAINGNFEEIQHFLLHFWQGMPDHLLPLLENPVIIDIFCVCDSILYKVLTDVLIPATMQEMPESLLADIRNFAKNWEQWVVSSLENLPEALTDKKIPIVRRFVSSLKRQTSFLHLAQIARPALFDQHVVNSMVSDIERVDLNSIGSQALLTISGSTDTESGIYTEHDSITVFQELKDLLKKNATVEAFIEWLDTVVEQRVIKTSKQNGRSLKKRAQDFLLKWSFFGARVMHNLTLNNASSFGSFHLIRMLLDEYILLAMETQFNNDKEQELQNLLDKYMKNSDASKAAFTASPSSCFLANRNKGSMVSSDAVKNESHVETTYLPLPSSQPGGLGPALHQFPAGNTDNMPLTGQMELSQIAGHLMTPPISPAMASRGSVINQGPMAGRPPSVGPVLSAPSHCSTYPEPIYPTLPQANHDFYSTSSNYQTVFRAQPHSTSGLYPHHTEHGRCMAWTEQQLSRDFFSGSCAGSPYNSRPPSSYGPSLQAQDSHNMQFLNTGSFNFLSNTGAASCQGATLPPNSPNGYYGSNINYPESHRLGSMVNQHVSVISSIRSLPPYSDIHDPLNILDDSGRKQTSSFYTDTSSPVACRTPVLASSLQTPIPSSSSQCMYGTSNQYPAQETLDSHGTSSREMVSSLPPINTVFMGTAAGGT",3.216
4,"RFX1 (protein, UniProt P22670 1-979, looked up) MHC class II regulatory …: MATQAYTELQAAPPPSQPPQAPPQAQPQPPPPPPPAAPQPPQPPTAAATPQPQYVTELQSPQPQAQPPGGQKQYVTELPAVPAPSQPTGAPTPSPAPQQYIVVTVSEGAMRASETVSEASPGSTASQTGVPTQVVQQVQGTQQRLLVQTSVQAKPGHVSPLQLTNIQVPQQALPTQRLVVQSAAPGSKGGQVSLTVHGTQQVHSPPEQSPVQANSSSSKTAGAPTGTVPQQLQVHGVQQSVPVTQERSVVQATPQAPKPGPVQPLTVQGLQPVHVAQEVQQLQQVPVPHVYSSQVQYVEGGDASYTASAIRSSTYSYPETPLYTQTASTSYYEAAGTATQVSTPATSQAVASSGSMPMYVSGSQVVASSTSTGAGASNSSGGGGSGGGGGGGGGGGGGGSGSTGGGGSGAGTYVIQGGYMLGSASQSYSHTTRASPATVQWLLDNYETAEGVSLPRSTLYCHYLLHCQEQKLEPVNAASFGKLIRSVFMGLRTRRLGTRGNSKYHYYGLRIKASSPLLRLMEDQQHMAMRGQPFSQKQRLKPIQKMEGMTNGVAVGQQPSTGLSDISAQVQQYQQFLDASRSLPDFTELDLQGKVLPEGVGPGDIKAFQVLYREHCEAIVDVMVNLQFTLVETLWKTFWRYNLSQPSEAPPLAVHDEAEKRLPKAILVLLSKFEPVLQWTKHCDNVLYQGLVEILIPDVLRPIPSALTQAIRNFAKSLESWLTHAMVNIPEEMLRVKVAAAGAFAQTLRRYTSLNHLAQAARAVLQNTAQINQMLSDLNRVDFANVQEQASWVCRCEDRVVQRLEQDFKVTLQQQNSLEQWAAWLDGVVSQVLKPYQGSAGFPKAAKLFLLKWSFYSSMVIRDLTLRSAASFGSFHLIRLLYDEYMYYLIEHRVAQAKGETPIAVMGEFANLATSLNPLDPDKDEEEEEEEESEDELPQDISLAAGGESPALGPETLEPPAKLARTDARGLFVQALPSS",-0.4637
5,"RHOXF1 (protein, UniProt Q8NHV9 1-184, looked up) Rhox homeobox family member 1: MARSLVHDTVFYCLSVYQVKISPTPQLGAASSAEGHVGQGAPGLMGNMNPEGGVNHENGMNRDGGMIPEGGGGNQEPRQQPQPPPEEPAQAAMEGPQPENMQPRTRRTKFTLLQVEELESVFRHTQYPDVPTRRELAENLGVTEDKVRVWFKNKRARCRRHQRELMLANELRADPDDCVYIVVD",-0.9364
6,"BATF2 (protein, UniProt Q8N1L9 1-274, looked up) Basic leucine zipper …: MHLCGGNGLLTQTDPKEQQRQLKKQKNRAAAQRSRQKHTDKADALHQQHESLEKDNLALRKEIQSLQAELAWWSRTLHVHERLCPMDCASCSAPGLLGCWDQAEGLLGPGPQGQHGCREQLELFQTPGSCYPAQPLSPGPQPHDSPSLLQCPLPSLSLGPAVVAEPPVQLSPSPLLFASHTGSSLQGSSSKLSALQPSLTAQTAPPQPLELEHPTRGKLGSSPDNPSSALGLARLQSREHKPALSAATWQGLVVDPSPHPLLAFPLLSSAQVHF",-1.083
7,"RHOXF2 (protein, UniProt Q9BQY4 1-288, looked up) Rhox homeobox family member 2: MEPPDQCSQYMTSLLSPAVDDEKELQDMNAMVLSLTEEVKEEEEDAQPEPEQGTAAGEKLKSAGAQGGEEKDGGGEEKDGGGAGVPGHLWEGDLEGTSGSDGNVEDSDQSEKEPGQQYSRPQGAVGGLEPGNAQQPNVHAFTPLQLQELERIFQREQFPSEFLRRRLARSMNVTELAVQIWFENRRAKWRRHQRALMARNMLPFMAVGQPVMVTAAEAITAPLFISGMRDDYFWDHSHSSSLCFPMPPFPPPSLPLPLMLLPPMPPAGQAEFGPFPFVIVPSFTFPNV",1.459
8,"RNF14 (protein, UniProt Q9UBS8 1-474, looked up) E3 ubiquitin-protein ligase …: MSSEDREAQEDELLALASIYDGDEFRKAESVQGGETRIYLDLPQNFKIFVSGNSNECLQNSGFEYTICFLPPLVLNFELPPDYPSSSPPSFTLSGKWLSPTQLSALCKHLDNLWEEHRGSVVLFAWMQFLKEETLAYLNIVSPFELKIGSQKKVQRRTAQASPNTELDFGGAAGSDVDQEEIVDERAVQDVESLSNLIQEILDFDQAQQIKCFNSKLFLCSICFCEKLGSECMYFLECRHVYCKACLKDYFEIQIRDGQVQCLNCPEPKCPSVATPGQVKELVEAELFARYDRLLLQSSLDLMADVVYCPRPCCQLPVMQEPGCTMGICSSCNFAFCTLCRLTYHGVSPCKVTAEKLMDLRNEYLQADEANKRLLDQRYGKRVIQKALEEMESKEWLEKNSKSCPCCGTPIEKLDGCNKMTCTGCMQYFCWICMGSLSRANPYKHFNDPGSPCFNRLFYAVDVDDDIWEDEVED",0.4543
9,"RFC1 (protein, UniProt P35251 1-1148, looked up) Replication factor C subunit 1: MDIRKFFGVIPSGKKLVSETVKKNEKTKSDEETLKAKKGIKEIKVNSSRKEDDFKQKQPSKKKRIIYDSDSESEETLQVKNAKKPPEKLPVSSKPGKISRQDPVTYISETDEEDDFMCKKAASKSKENGRSTNSHLGTSNMKKNEENTKTKNKPLSPIKLTPTSVLDYFGTGSVQRSNKKMVASKRKELSQNTDESGLNDEAIAKQLQLDEDAELERQLHEDEEFARTLAMLDEEPKTKKARKDTEAGETFSSVQANLSKAEKHKYPHKVKTAQVSDERKSYSPRKQSKYESSKESQQHSKSSADKIGEVSSPKASSKLAIMKRKEESSYKEIEPVASKRKENAIKLKGETKTPKKTKSSPAKKESVSPEDSEKKRTNYQAYRSYLNREGPKALGSKEIPKGAENCLEGLIFVITGVLESIERDEAKSLIERYGGKVTGNVSKKTNYLVMGRDSGQSKSDKAAALGTKIIDEDGLLNLIRTMPGKKSKYEIAVETEMKKESKLERTPQKNVQGKRKISPSKKESESKKSRPTSKRDSLAKTIKKETDVFWKSLDFKEQVAEETSGDSKARNLADDSSENKVENLLWVDKYKPTSLKTIIGQQGDQSCANKLLRWLRNWQKSSSEDKKHAAKFGKFSGKDDGSSFKAALLSGPPGVGKTTTASLVCQELGYSYVELNASDTRSKSSLKAIVAESLNNTSIKGFYSNGAASSVSTKHALIMDEVDGMAGNEDRGGIQELIGLIKHTKIPIICMCNDRNHPKIRSLVHYCFDLRFQRPRVEQIKGAMMSIAFKEGLKIPPPAMNEIILGANQDIRQVLHNLSMWCARSKALTYDQAKADSHRAKKDIKMGPFDVARKVFAAGEETAHMSLVDKSDLFFHDYSIAPLFVQENYIHVKPVAAGGDMKKHLMLLSRAADSICDGDLVDSQIRSKQNWSLLPAQAIYASVLPGELMRGYMTQFPTFPSWLGKHSSTGKHDRIVQDLALHMSLRTYSSKRTVNMDYLSLLRDALVQPLTSQGVDGVQDVVALMDTYYLMKEDFENIMEISSWGGKPSPFSKLDPKVKAAFTRAYNKEAHLTPYSLQAIKASRHSTSPSLDSEYNEELNEDDSQSDEKDQDAIETDAMIKKKTKSSKPSKPEKDKEPRKGKGKSSKK",2.906
